Target: HRV-3C protease biosensor: blocked hybrid scFv of H6-MG (VH) and HL1-TO1 (VL) with the HRV-3C recognition sequence […]in the peptide linker
Assay: cell-based or functional assay

Question: How did the kinetic assay of MG fluorescence activation, time to complete activation (1 unit protease, 25° C.) turn out when Human Rhinovirus 3C protease (enzyme) was run?
Answer: 30 min

From patent US20160033490A1
